According to US20210115138A1 (WUXI BIOLOGICS IRELAND, published 2021):

Columns and labels:
[1] = biological target: T1, mouse Fc-tagged human PD-1 protein (human, UniProt Q15116 25-170); assay: dual-binding ELISA; mFc-PD-1 coated, antibody titrated, detected by His-tagged LAG-3 and anti-His-HRP; dual binding: PD-1 and LAG-3 protein together
T1 construct: extracellular domain; also called mouse Fc-tagged PD-1 protein; not shown: mouse Fc tag

[2] = biological target: T2, mouse Fc-tagged human LAG-3 protein (human, UniProt P18627 23-450); assay: flow cytometry; blocking of mFc-LAG-3 binding to MHC-II on Raji cells
T2 construct: extracellular domain; also called mouse Fc-tagged LAG-3 protein; not shown: mouse Fc tag
T2 sequence (looked up): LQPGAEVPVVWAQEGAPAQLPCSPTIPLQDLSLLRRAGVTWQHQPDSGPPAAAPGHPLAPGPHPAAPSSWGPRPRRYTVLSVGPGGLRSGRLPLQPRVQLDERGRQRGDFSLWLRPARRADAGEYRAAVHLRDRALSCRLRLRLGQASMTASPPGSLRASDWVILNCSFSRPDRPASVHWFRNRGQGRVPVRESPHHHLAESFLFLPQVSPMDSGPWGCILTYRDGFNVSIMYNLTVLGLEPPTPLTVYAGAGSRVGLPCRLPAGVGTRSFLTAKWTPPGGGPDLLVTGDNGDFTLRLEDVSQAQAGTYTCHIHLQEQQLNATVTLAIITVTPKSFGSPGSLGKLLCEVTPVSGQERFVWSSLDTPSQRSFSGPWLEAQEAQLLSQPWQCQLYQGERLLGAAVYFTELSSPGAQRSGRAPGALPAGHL
Description: The mixture was transferred into the 96-well plates seeded with Raji cells which express MHC-II on the surface. […] The MFI was evaluated by flow cytometry and analyzed by the software FlowJo.

human CTLA-4 protein = biological target: T3, human CTLA-4 protein (human, UniProt P16410 36-161); assay: ELISA, human CTLA-4 coated at 1 ug/mL, antibody added at 0.67 and 6.7 nM, OD450
T3 construct: extracellular domain
T3 sequence (P16410 36-161): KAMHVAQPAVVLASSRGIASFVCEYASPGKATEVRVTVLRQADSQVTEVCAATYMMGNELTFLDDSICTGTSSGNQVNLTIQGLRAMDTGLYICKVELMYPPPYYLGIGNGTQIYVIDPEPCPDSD
Description: (§1) Cross-reactivity to human CD4, CTLA-4 or CD28 was measured by ELISA. Plates were coated with human CD4, CTLA-4 or CD28 at 1 μg/mL overnight at 4° C. […] The plates were then washed and subsequently incubated with corresponding secondary antibody for 60 min. After washing, TMB substrate was added and the color reaction was stopped by 2M HCl.

mouse PD-1 protein = biological target: T4, mouse PD-1 protein (mouse, UniProt Q02242 25-167, limits assumed); assay: ELISA, antibody coated on the plate, mouse PD-1 (His tag on the sheet) added at 0.25, 2.5 and 25 nM, OD450
T4 sequence (looked up): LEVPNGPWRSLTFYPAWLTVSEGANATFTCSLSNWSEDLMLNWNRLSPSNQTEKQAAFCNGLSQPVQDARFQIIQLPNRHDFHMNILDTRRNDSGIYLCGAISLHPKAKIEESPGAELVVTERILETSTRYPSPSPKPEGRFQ
Description: After blocking and washing, various concentrations of mouse PD-1 protein were added to the plates and incubated at room temperature for 1 hour. The plates were then washed and subsequently incubated with HRP-labeled goat anti-mouse IgG antibody for 1 hour. After washing, TMB substrate was added and the color reaction was stopped by 2M HCl. The absorbance at 450 nm was read using a microplate reader.

[3] = biological target: T2, mouse Fc-tagged human LAG-3 protein; assay: ELISA; antibody coated, mFc-tagged LAG-3 titrated
Description: The plates were then washed and subsequently incubated with HRP-labeled goat anti-mouse IgG antibody for 1 hour. After washing, TMB substrate was added and the color reaction was stopped by 2M HCl. The absorbance at 450 nm was read using a microplate reader.

human CD28 protein = biological target: T5, human CD28 protein (human, UniProt P10747 19-152); assay: ELISA, human CD28 coated at 1 ug/mL, antibody added at 0.67 and 6.7 nM, OD450
T5 construct: extracellular domain
Description: as §1

[4] = biological target: T6, His-tagged human PD-1 protein (MW: 40 KD) (human, UniProt Q15116 25-167); assay: SPR Biacore 8K; antibody captured on anti-human Fc, His-PD-1 injected
T6 construct: not shown: His tag
T6 sequence (Q15116 25-167 limits assumed): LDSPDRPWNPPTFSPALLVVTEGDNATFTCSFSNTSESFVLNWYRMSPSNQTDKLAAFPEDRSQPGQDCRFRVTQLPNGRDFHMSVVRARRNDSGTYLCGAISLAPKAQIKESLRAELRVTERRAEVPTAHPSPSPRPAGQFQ
Description: Binding affinity of the bispecific antibodies to the antigen were determined by SPR assay using Biacore 8K. PD-1×LAG-3 antibodies were captured on an anti-human IgG Fc antibody immobilized CMS sensor chip (GE).
(§2) The sensorgrams of blank surface and buffer channel were subtracted from the test sensorgrams. The experimental data was fitted by 1:1 model using Langmiur analysis.

Human LAG-3 without tag = biological target: T7, Human LAG-3 without tag (human, UniProt P18627 23-450); assay: SPR; antibody immobilized, untagged human LAG-3 injected, single-cycle kinetics
T7 construct: extracellular domain; also called untagged LAG-3 ECD protein
T7 sequence (looked up): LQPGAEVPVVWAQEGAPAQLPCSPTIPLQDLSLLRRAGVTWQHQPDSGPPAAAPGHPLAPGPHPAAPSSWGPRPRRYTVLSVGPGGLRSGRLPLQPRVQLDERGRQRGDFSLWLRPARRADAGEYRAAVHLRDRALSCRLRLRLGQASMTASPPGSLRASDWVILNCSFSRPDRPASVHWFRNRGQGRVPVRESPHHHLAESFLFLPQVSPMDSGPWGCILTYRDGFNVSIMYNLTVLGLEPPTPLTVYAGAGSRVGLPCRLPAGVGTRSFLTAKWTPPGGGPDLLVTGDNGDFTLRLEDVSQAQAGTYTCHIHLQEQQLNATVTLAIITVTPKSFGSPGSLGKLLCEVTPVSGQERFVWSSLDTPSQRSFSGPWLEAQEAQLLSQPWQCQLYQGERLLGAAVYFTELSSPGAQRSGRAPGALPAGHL
Description: The chip was regenerated with 10 mM glycine (pH 1.5).
as §2

cynomolgus PD-1 on cells = biological target: T8, cynomolgus PD-1 on cells (cynomolgus, UniProt B0LAJ3 25-288); assay: flow cytometry on cynomolgus PD-1 expressing 293F cells
T8 construct: also called cell surface cynomolgus PD-1
T8 sequence (B0LAJ3 entry or part of it limits assumed): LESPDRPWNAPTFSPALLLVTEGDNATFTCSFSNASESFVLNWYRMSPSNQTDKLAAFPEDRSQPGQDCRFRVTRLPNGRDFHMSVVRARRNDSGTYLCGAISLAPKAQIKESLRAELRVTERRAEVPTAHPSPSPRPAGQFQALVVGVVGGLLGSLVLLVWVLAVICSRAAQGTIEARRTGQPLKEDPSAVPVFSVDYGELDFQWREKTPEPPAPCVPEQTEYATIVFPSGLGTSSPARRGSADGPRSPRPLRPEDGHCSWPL
Description: (§3) MFI of the cells was measured by flow cytometry and analyzed by FlowJo.

human PD-1 on cells [5] = biological target: T9, human PD-1 on cells (human, UniProt Q15116 25-288); assay: flow cytometry; competition with mFc-PD-L1 on PD-1 expressing CHO-S cells
T9 construct: whole, on cells; also called cell surface human PD-1; PD-1 expressing CHO-S cells
T9 sequence (Q15116 25-288): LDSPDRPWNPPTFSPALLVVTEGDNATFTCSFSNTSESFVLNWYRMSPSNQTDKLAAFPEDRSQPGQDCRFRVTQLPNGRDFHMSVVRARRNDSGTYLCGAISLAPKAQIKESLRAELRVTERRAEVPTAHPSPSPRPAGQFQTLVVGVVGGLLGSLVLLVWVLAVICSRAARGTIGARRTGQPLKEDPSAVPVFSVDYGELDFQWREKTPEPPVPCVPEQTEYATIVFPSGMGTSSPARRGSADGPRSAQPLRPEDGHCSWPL
Description: The mixture was transferred into the 96-well plates seeded with PD-1 expressing CHO-S cells. […] The MFI was evaluated by flow cytometry and analyzed by the software FlowJo.

human CD4 protein = human CD4 protein (human, UniProt P01730 26-390, limits assumed); assay: ELISA, human CD4 coated at 1 ug/mL, antibody added at 0.67 and 6.7 nM, OD450
Description: as §1

human PD-1 on cells [6] = biological target: T9, human PD-1 on cells; assay: cell-based or functional assay
[7] = biological target: T10, cynomolgus LAG-3 on cells (cynomolgus); assay: flow cytometry on cynomolgus LAG-3 expressing 293F cells
T10 construct: whole, on cells; also called cell surface cynomolgus LAG-3
Description: as §3

[8] = biological target: T1, mouse Fc-tagged human PD-1 protein; assay: ELISA; antibody coated, mFc-tagged PD-1 titrated
human LAG-3 on cells [9] = biological target: T11, human LAG-3 on cells (human, UniProt P18627 23-525); assay: flow cytometry on human LAG-3 expressing 293F cells
T11 construct: whole, on cells; also called cell surface human LAG-3; human LAG-3 expressing 293F cells
T11 sequence (looked up): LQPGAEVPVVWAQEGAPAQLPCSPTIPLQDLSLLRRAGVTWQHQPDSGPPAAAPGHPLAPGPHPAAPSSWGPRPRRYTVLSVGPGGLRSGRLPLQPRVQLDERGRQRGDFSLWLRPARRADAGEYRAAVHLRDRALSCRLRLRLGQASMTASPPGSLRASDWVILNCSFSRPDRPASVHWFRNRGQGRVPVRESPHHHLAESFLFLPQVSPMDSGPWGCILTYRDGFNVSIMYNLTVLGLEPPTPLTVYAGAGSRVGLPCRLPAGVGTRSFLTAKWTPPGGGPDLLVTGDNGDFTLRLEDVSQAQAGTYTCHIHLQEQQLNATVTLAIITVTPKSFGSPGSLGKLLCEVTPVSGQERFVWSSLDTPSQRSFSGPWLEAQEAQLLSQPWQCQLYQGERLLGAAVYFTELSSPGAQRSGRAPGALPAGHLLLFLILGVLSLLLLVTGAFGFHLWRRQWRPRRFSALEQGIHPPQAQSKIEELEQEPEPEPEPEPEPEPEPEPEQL
Description: (§4) MFI of the cells was measured by flow cytometry and analyzed by FlowJo (version 7.6.1).

human PD-1 on cells [10] = biological target: T9, human PD-1 on cells; assay: flow cytometry on human PD-1 expressing cells
Description: as §4

human LAG-3 on cells [11] = biological target: T11, human LAG-3 on cells; assay: cell-based or functional assay

T1 sequence (Q15116 25-170): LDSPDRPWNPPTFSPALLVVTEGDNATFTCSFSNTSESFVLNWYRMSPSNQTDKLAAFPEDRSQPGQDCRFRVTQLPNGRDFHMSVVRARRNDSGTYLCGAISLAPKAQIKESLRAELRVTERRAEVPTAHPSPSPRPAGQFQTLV

B1: W365-U6T1.G14-1.uIgG4.SP (bispecific antibody)
heavy: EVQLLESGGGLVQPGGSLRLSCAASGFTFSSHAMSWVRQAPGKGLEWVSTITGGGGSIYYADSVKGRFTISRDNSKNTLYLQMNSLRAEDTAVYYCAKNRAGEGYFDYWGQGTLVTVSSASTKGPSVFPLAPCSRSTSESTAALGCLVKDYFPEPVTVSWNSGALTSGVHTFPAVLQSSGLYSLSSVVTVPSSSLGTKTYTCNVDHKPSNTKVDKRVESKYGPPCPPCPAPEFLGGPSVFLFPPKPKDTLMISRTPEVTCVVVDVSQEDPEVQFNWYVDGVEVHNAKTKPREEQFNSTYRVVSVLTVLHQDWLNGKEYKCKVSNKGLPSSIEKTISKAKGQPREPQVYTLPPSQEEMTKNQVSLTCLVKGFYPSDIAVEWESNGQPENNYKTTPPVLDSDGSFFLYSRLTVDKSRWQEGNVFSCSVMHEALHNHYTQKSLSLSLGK
light: SYELTQPLSVSVALGQTARITCGGDNIGNKDVHWYQQKPGQAPVLVIYRDSNRPSGIPEGFSGSNSGNTATLTISRAQAGDEADYYCQVWDSIWVFGGGTKLTVLGQPKAAPSVTLFPPSSEELQANKATLVCLISDFYPGAVTVAWKADSSPVKAGVETTTPSKQSNNKYAASSYLSLTPEQWKSHKSYSCQVTHEGSTVEKTVAPTECSGGGGSGGGGSQLQLQESGPGLVKPSETLSLTCTVSGDSISSTSYYWGWIRQPPGKGLEWIGSFYYSGSTYYNPSLKSRVTISVDTSKNQFSLKLNSVTAADTAVYYCARMQLWSYDVDVWGQGTTVTVSSGGGGSGGGGSGGGGSQSALTQPASVSGSPGQSITISCTGTSSDVGGYDYVAWYQQHPGKVPKLMIYDVSERPSGVSNRFSGSKSGNTASLTISGLQAEDEADYYCSSYTSTTTLVVFGGGTKLSVL
notes: Anti-PD-1 (W3055-1.153.7) human IgG4 S228P; also called W365-G14; W365G-14
[1]
  EC50: 0.04 nM
[2]
  IC50: 2.2 nM
Human CTLA-4 protein
  binding result: no binding (tested: 6.7 nM)
Mouse PD-1 protein
  binding result: no binding (tested: 25 nM (mouse PD-1))
[3]
  EC50: 0.27 nM
Human CD28 protein
  binding result: no binding (tested: 6.7 nM)
[4]
  Kd: 2.46 nM
  koff: 0.000695 s⁻¹
  kon: 283000 M⁻¹ s⁻¹
Human LAG-3 without tag
  Kd: < 0.0261 nM
  koff: < 1e-05 s⁻¹
  kon: 383000 M⁻¹ s⁻¹
Cynomolgus PD-1 on cells
  EC50: 0.38 nM
Human PD-1 on cells [5]
  IC50: 1.01 nM
Human CD4 protein
  binding result: no binding (tested: 6.7 nM)
Human PD-1 on cells [6]
  EC50 of NFAT pathways enhancement (luciferase reporter): 0.4 nM
[7]
  EC50: 6.5 nM
[8]
  EC50: 0.07 nM
Human LAG-3 on cells [9]
  EC50: 2.57 nM
Human PD-1 on cells [10]
  EC50: 1.32 nM
Human LAG-3 on cells [11]
  EC50 of IL-2 pathways enhancement (luciferase reporter): 0.92 nM
